This note sets out measurements from article PMC12808100, “The non-catalytic DNA polymerase ε subunit is an NPF motif recognition protein” (Nature Communications, 2025).

In test [1] the target is His6-AviTag-MBP-TEV-POLE2, P56282. The test is described as follows: nHU titration, dot blot. The conditions noted are these: chain shown with the change.
Test [2] addresses triple NPF motif peptide made from the DONSON sequence (human). The test is described as follows: native holdup (nHU) titration with western blot; biotinylated peptide bait on streptavidin resin, bait-saturated and control (biotin) resin mixed at various proportions; total Jurkat extract as analyte; 4 °C, 2 h; endogenous POLE and EPS15 left in the supernatant quantified by western blot; apparent dissociation constants.

Sequence of His6-AviTag-MBP-TEV-POLE2, P56282 (P56282 whole entry): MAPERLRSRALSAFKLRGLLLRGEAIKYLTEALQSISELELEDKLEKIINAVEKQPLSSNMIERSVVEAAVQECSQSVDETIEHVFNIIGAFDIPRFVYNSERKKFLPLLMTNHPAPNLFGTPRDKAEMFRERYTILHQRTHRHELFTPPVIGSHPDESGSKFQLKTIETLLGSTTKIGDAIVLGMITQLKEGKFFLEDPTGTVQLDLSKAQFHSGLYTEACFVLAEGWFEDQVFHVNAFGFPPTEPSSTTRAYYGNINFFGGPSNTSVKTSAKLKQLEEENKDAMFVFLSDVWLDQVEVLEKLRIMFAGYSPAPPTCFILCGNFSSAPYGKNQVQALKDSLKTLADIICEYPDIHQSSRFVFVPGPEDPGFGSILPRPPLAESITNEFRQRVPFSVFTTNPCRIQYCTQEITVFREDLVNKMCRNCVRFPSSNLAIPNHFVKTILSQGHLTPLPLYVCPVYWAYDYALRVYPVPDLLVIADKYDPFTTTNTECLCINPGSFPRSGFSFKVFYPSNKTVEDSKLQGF

B1: HA-TTF2, full length, intact NPF motifs, Q9UNY4 NPF to KAF (protein)
chain: MEEVRCPEHGTFCFLKTGVRDGPNKGKSFYVCRADTCSFVRATDIPVSHCLLHEDFVVELQGLLLPQDKKEYRLFFRCIRSKAEGKRWCGSIPWQDPDSKEHSVSNKSQHASETFHHSSNWLRKAFKVLDKNQEPALWKQLIKGEGEEKKADKKQREKGDQLFDQKKEQKPEMMEKDLSSGLVPKKKQSVVQEKKQEEGAEIQCEAETGGTHKRDFSEIKSQQCQGNELTRPSASSQEKSSGKSQDVQRESEPLREKVTQLLPQNVHSHNSISKPQKGGPLNKEYTNWEAKETKAKDGPSIQATQKSLPQGHFQERPETHSVPAPGGPAAQAAPAAPGLSLGEGREAATSSDDEEEDDVVFVSSKPGSPLLFDSTLDLETKENLQFPDRSVQRKVSPASGVSKKVEPSDPVARRVYLTTQLKQKKSTLASVNIQALPDKGQKLIKQIQELEEVLSGLTLSPEQGTNEKSNSQVPQQSHFTKTTTGPPHLVPPQPLPRRGTQPVGSLELKSACQVTAGGSSQCYRGHTNQDHVHAVWKITSEAIGQLHRSLESCPGETVVAEDPAGLKVPLLLHQKQALAWLLWRESQKPQGGILADDMGLGKTLTMIALILTQKNQEKKEEKEKSTALTWLSKDDSCDFTSHGTLIICPASLIHHWKNEVEKRVNSNKLRVYLYHGPNRDSRARVLSTYDIVITTYSLVAKEIPTNKQEAEIPGANLNVEGTSTPLLRIAWARIILDEAHNVKNPRVQTSIAVCKLQACARWAVTGTPIQNNLLDMYSLLKFLRCSPFDEFNLWRSQVDNGSKKGGERLSILTKSLLLRRTKDQLDSTGRPLVILPQRKFQLHHLKLSEDEETVYNVFFARSRSALQSYLKRHESRGNQSGRSPNNPFSRVALEFGSEEPRHSEAADSPRSSTVHILSQLLRLRQCCCHLSLLKSALDPMELKGEGLVLSLEEQLSALTLSELRDSEPSSTVSLNGTFFKMELFEGMRESTKISSLLAELEAIQRNSASQKSVIVSQWTNMLKVVALHLKKHGLTYATIDGSVNPKQRMDLVEAFNHSRGPQVMLISLLAGGVGLNLTGGNHLFLLDMHWNPSLEDQACDRIYRVGQQKDVVIHRFVCEGTVEEKILQLQEKKKDLAKQVLSGSGESVTKLTLADLRVLFGI
B1 yielded a Kd in test [1] of 1.1 µM.

B2: EPS15 (natural protein)
chain: MAAAAQLSLTQLSSGNPVYEKYYRQVDTGNTGRVLASDAAAFLKKSGLPDLILGKIWDLADTDGKGILNKQEFFVALRLVACAQNGLEVSLSSLNLAVPPPRFHDTSSPLLISGTSAAELPWAVKPEDKAKYDAIFDSLSPVNGFLSGDKVKPVLLNSKLPVDILGRVWELSDIDHDGMLDRDEFAVAMFLVYCALEKEPVPMSLPPALVPPSKRKTWVVSPAEKAKYDEIFLKTDKDMDGFVSGLEVREIFLKTGLPSTLLAHIWSLCDTKDCGKLSKDQFALAFHLISQKLIKGIDPPHVLTPEMIPPSDRASLQKNIIGSSPVADFSAIKELDTLNNEIVDLQREKNNVEQDLKEKEDTIKQRTSEVQDLQDEVQRENTNLQKLQAQKQQVQELLDELDEQKAQLEEQLKEVRKKCAEEAQLISSLKAELTSQESQISTYEEELAKAREELSRLQQETAELEESVESGKAQLEPLQQHLQDSQQEISSMQMKLMEMKDLENHNSQLNWCSSPHSILVNGATDYCSLSTSSSETANLNEHVEGQSNLESEPIHQESPARSSPELLPSGVTDENEVTTAVTEKVCSELDNNRHSKEEDPFNVDSSSLTGPVADTNLDFFQSDPFVGSDPFKDDPFGKIDPFGGDPFKGSDPFASDCFFRQSTDPFATSSTDPFSAANNSSITSVETLKHNDPFAPGGTVVAASDSATDPFASVFGNESFGGGFADFSTLSKVNNEDPFRSATSSSVSNVVITKNVFEETSVKSEDEPPALPPKIGTPTRPCPLPPGKRSINKLDSPDPFKLNDPFQPFPGNDSPKEKDPEIFCDPFTSATTTTNKEADPSNFANFSAYPSEEDMIEWAKRESEREEEQRLARLNQQEQEDLELAIALSKSEISEA
On to B2, for which, in test [2], the Kd is 0.8 µM.

B3: HA-ERCC6L, full length, intact NPF motif, Q2NKX8 NPF to KAF (protein)
chain: MEASRRFPEAEALSPEQAAHYLRYVKEAKEATKNGDLEEAFKLFNLAKDIFPNEKVLSRIQKIQEALEELAEQGDDEFTDVCNSGLLLYRELHNQLFEHQKEGIAFLYSLYRDGRKGGILADDMGLGKTVQIIAFLSGMFDASLVNHVLLIMPTNLINTWVKEFIKWTPGMRVKTFHGPSKDERTRNLNRIQQRNGVIITTYQMLINNWQQLSSFRGQEFVWDYVILDEAHKIKTSSTKSAICARAIPASNRLLLTGTPIQNNLQELWSLFDFACQGSLLGTLKTFKMEYENPITRAREKDATPGEKALGFKISENLMAIIKPYFLRRTKEDVQKKKSSNPEARLNEKNPDVDAICEMPSLSRKNDLIIWIRLVPLQEEIYRKFVSLDHIKELLMETRSPLAELGVLKKLCDHPRLLSARACCLLNLGTFSAQDGNEGEDSPDVDHIDQVTDDTLMEESGKMIFLMDLLKRLRDEGHQTLVFSQSRQILNIIERLLKNRHFKTLRIDGTVTHLLEREKRINLFQQNKDYSVFLLTTQVGGVGLTLTAATRVVIFDPSWNPATDAQAVDRVYRIGQKENVVVYRLITCGTVEEKIYRRQVFKDSLIRQTTGEKKNPFRYFSKQELRELFTIEDLQNSVTQLQLQSLHAAQRKSDIKLDEHIAYLQSLGIAGISDHDLMYTCDLSVKEELDVVEESHYIQQRVQKAQFLVEFESQNKEFLMEQQRTRNEGAWLREPVFPSSTKKKCPKLNKPQPQPSPLLSTHHTQEEDISSKMASVVIDDLPKEGEKQDLSSIKVNVTTLQDGKGTGSADSIATLPKGFGSVEELCTNSSLGMEKSFATKNEAVQKETLQEGPKQEALQEDPLESFNYVLSKSTKADIGPNLDQLKDDEILRHCNPWPIISITNESQNAESNVSIIEIADDLSASHSALQDAQASEAKLEEEPSASSPQYACDFNLFLEDSADNRQNFSSQSLEHVEKENSLCGSAPNSRAGFVHSKTCLSWEFSEKDDEPEEVVVKAKIRSKARRIVSDGEDEDDSFKDTSSIKAFNTSLFQFSSVKQFDASTPKNDISPPGRFFSSQIPSSVNKSMNSRRSLASRRSLINMVLDHVEDMEERLDDSSEAKGPEDYPEEGVEESSGEASKYTEEDPSGETLSSENKSSWLMTSKPSALAQETSLGAPEPLSGEQLVGSPQDKAAEATNDYETLVKRGKELKECGKIQEALNCLVKALDIKSADPEVMLLTLSLYKQLNNN
B3 had a Kd in test [1] of 23 µM.

B4: HA-WDHD1, full length, intact NPF motif, O75717 NPF to KAF (protein)
chain: MPATRKPMRYGHTEGHTEVCFDDSGSFIVTCGSDGDVRIWEDLDDDDPKFINVGEKAYSCALKSGKLVTAVSNNTIQVHTFPEGVPDGILTRFTTNANHVVFNGDGTKIAAGSSDFLVKIVDVMDSSQQKTFRGHDAPVLSLSFDPKDIFLASASCDGSVRVWQISDQTCAISWPLLQKCNDVINAKSICRLAWQPKSGKLLAIPVEKSVKLYRRESWSHQFDLSDNFISQTLNIVTWSPCGQYLAAGSINGLIIVWNVETKDCMERVKHEKGYAICGLAWHPTCGRISYTDAEGNLGLLENVCDPSGKTSSSKVSSRVEKDYNDLFDGDDMSNAGDFLNDNAVEIPSFSKGIINDDEDDEDLMMASGRPRQRSHILEDDENSVDISMLKTGSSLLKEEEEDGQEGSIHNLPLVTSQRPFYDGPMPTPRQKPFQSGSTPLHLTHRFMVWNSIGIIRCYNDEQDNAIDVEFHDTSIHHATHLSNTLNYTIADLSHEAILLACESTDELASKLHCLHFSSWDSSKEWIIDLPQNEDIEAICLGQGWAAAATSALLLRLFTIGGVQKEVFSLAGPVVSMAGHGEQLFIVYHRGTGFDGDQCLGVQLLELGKKKKQILHGDPLPLTRKSYLAWIGFSAEGTPCYVDSEGIVRMLNRGLGNTWTPICNTREHCKGKSDHYWVVGIHENPQQLRCIPCKGSRFPPTLPRPAVAILSFKLPYCQIATEKGQMEEQFWRSVIFHNHLDYLAKNGYEYEESTKNQATKEQQELLMKMLALSCKLEREFRCVELADLMTQNAVNLAIKYASRSRKLILAQKLSELAVEKAAELTATQVEEEEEEEDFRKKLNAGYSNTATEWSQPRFRNQVEEDAEDSGEADDEEKPEIHKPGQNSFSKSTNSSDVSAKSGAVTFSSQGRVKAFKVSASSKEPAMSMNSARSTNILDNMGKSSKKSTALSRTTNNEKSPIIKPLIPKPKPKQASAASYFQKRNSQTNKTEEVKEENLKNVLSETPAICPPQNTENQRPKTGFQMWLEENRSNILSDNPDFSDEADIIKEGMIRFRVLSTEERKVWANKAKGETASEGTEAKKRKRVVDESDETENQEEKAKENLNLSKKQKPLDFSTNQKLSAFAFKQE
With B4, the Kd in test [1] stood at 32 µM.
